Test results taken from the nanobody polyreactivity screen of Harvey et al. (2022).

Experiment: yeast display, Sf9 membrane polyspecificity reagent, FACS + sequencing; frameworks hold sequencing errors
Procedure, shortened: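 Synthetic nanobody libraries on Saccharomyces cerevisiae BJ5465 were galactose-induced for 36–48 hours, stained 1 hour at 4 °C with 10% biotinylated, detergent-solubilized Sf9 membrane reagent and enriched on streptavidin microbeads. FACS then separated cells into low and high (top ~1%) gates by anti-HA (expression) and streptavidin (reagent binding) fluorescence. Genes were colony-PCR amplified, MiSeq 2 × 250 sequenced and CDR-length filtered. A clone's polyreactivity label is that of its gate of origin.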

Which “polyreactivity (PSR sort gate)” value does the source give for “QVQLVESGGGLVQAGGSLRLSCAASGSTFDTYAMGWYRQAPGKERELVAAISYRGGNTYYADSVKGRFTISRDNAKNTVYLQMNSLKPEDTAVYYCAASYFDPASIPVAFNYWGQGTQVTVSS” here?
The value was “low polyreactivity”.

For “QVQLVESGGGLVQAGGSLRLSCAASGSTFDVNAMGSYRQAPGKERELVAAISWNSGSTYFADSVKGRFTISRDNAKNTVYLQMNRLKPEDTAVYYCAATYGTGRRSKYGYWGQGTQVTVSS”, which “polyreactivity (PSR sort gate)” value is on record?
The value was “high polyreactivity”.

With “QVQLVESGGGLVQAGGSLRLSCAASGSTFDVNAMGWYRQAPGKERELVAAITQSGGSTFYADSVKGRFTISRDNAKNTVYLQMNSLKPEDTAVYYWGQGTQVTVSS” as the sequence, how does the “polyreactivity (PSR sort gate)” value read?
The value was “low polyreactivity”.

Which “polyreactivity (PSR sort gate)” value does the source give for “QVQLVESGGGLVQAGGSLRLSCAASGSTFDVYAMGWYRQAPGKERELVATISTSGGDTYYADSVKGRFTISRDNAKNTVYLQMNSLNPEDTAVYYCNVSASYYSPDPKVLVRYDYWGQGTQVTVSS” here?
Its value is “low polyreactivity”.

For “QVQLVESGGGLVQAGGSLRLSCAASGSTFDVYAMGWYRQAPGKERELVAVINTSGTRTYYADSVKGRFTISRDNAKNTVYLQMNSLKPEDTAVYYCNAGGHLEMNYWGLGTQVTVSS”, which “polyreactivity (PSR sort gate)” value is on record?
Its value is “low polyreactivity”.

With “QVQLVESGGGLVQAGGSLRLSCAASGSTFDVYAMGWYRQAPGKERELVAVINTSGTRTYYADSVKGRFTISRDNAKNTVYLQMNSLKPEDTAVYYCNAGGHLEMNYWGQGTEVTVSS” as the sequence, how does the “polyreactivity (PSR sort gate)” value read?
The value was “low polyreactivity”.

With “QVQLVESGGGLVQAGGSLRLSCAASGSTFDVYAMGWYRQGPGKERELVATISNYGGDTYYADSVKGRFTISRDNAENTVYLQMNTLKPEDTAVYYCNAYLRFVDVSLDYQLLLEHDFWGQGTQVTVSS” as the sequence, how does the “polyreactivity (PSR sort gate)” value read?
The value was “low polyreactivity”.

With “QVQLVESGGGLVQAGGSLRLSCAASGSTFDVYTMGWYRQAPGKERELVATISGDDGSTYYADSVKGRFTISRDNAKNTVYLQMNSLKPEDTAVYYCAADYGGFPNYYSTGDYWGQGTQVTVSS” as the sequence, how does the “polyreactivity (PSR sort gate)” value read?
The value was “low polyreactivity”.

With “QVQLVESGGGLVQAGGSLRLSCAASGSTFDWYAMGWYRQAPGKERELVATIRYRGGTSYADSVKGRFTISRDNEKNTVYLQMNSLKPEDTAVYYCNAQLYIFDDSYNYWGFDYWGQGTQVTVSS” as the sequence, how does the “polyreactivity (PSR sort gate)” value read?
Its value is “high polyreactivity”.

Which “polyreactivity (PSR sort gate)” value does the source give for “QVQLVESGGGLVQAGGSLRLSCAASGSTFDWYVMGWDRQAPGKERELVADITWSGDSTYYADSVKGRFTISRDNAKNTVYLQMNSLKPEDTAVYYCAADAYTLFYFYVYEYNYWGQGTQVTVSS” here?
Its value is “high polyreactivity”.

Which “polyreactivity (PSR sort gate)” value does the source give for “QVQLVESGGGLVQAGGSLRLSCAASGSTFDYNAMGGYRQAPGKERELVAAISRGGNTYYADSVKGRFTISRDNAKNTVYLQMNSLKPEDTAVYYCAKDSYGSYRFVRNRQKAYGYWGQGTQVTVSS” here?
Its value is “low polyreactivity”.

With “QVQLVESGGGLVQAGGSLRLSCAASGSTFDYNAMGWYRQAPGKERELVAAISSTGGSTYYADSVKGRFTISRDNAKNTVYLQMNSLKPEDTAVYFCARYYAIVSGYYDDGYWGQGTQVTVSS” as the sequence, how does the “polyreactivity (PSR sort gate)” value read?
Its value is “high polyreactivity”.

Which “polyreactivity (PSR sort gate)” value does the source give for “QVQLVESGGGLVQAGGSLRLSCAASGSTFDYNAMGWYRQAPGKERELVATITSTGRTNYADSVKGRFTISRDNAKNTVYLQMNSLKPEDTAVYYCAKRTFFGKARGGPTYRLYYWGQGTQVTVSS” here?
Its value is “high polyreactivity”.

For “QVQLVESGGGLVQAGGSLRLSCAASGSTFDYNAMVWYRQAPGKESDLVVAITWGGDSTYADSVKGRFTISRDNAKNTVYLQMNSLKPEDTAVYYCAAEQDPWTSRYVFFASRYDYWGQGTQVTVSS”, which “polyreactivity (PSR sort gate)” value is on record?
Its value is “low polyreactivity”.

For “QVQLVESGGGLVQAGGSLRLSCAASGSTFDYNTMGWYRQAPGKERELVADITLRGASTYYADSVKGRFTISRDNAKNTVYLLMNSLKPEDTAVYYCNADYYWGTYANFDYWGQGTQVTVSS”, which “polyreactivity (PSR sort gate)” value is on record?
The value was “low polyreactivity”.

Which “polyreactivity (PSR sort gate)” value does the source give for “QVQLVESGGGLVQAGGSLRLSCAASGSTFDYNTMGWYRQAPGTERELVADITWRGASTYYADSVKGRFTISRDNAKNTVYLQMNSLKPEDTAVYYCAADYYSATGSYAYDYWGQGTQVTVSS” here?
Its value is “low polyreactivity”.

For “QVQLVESGGGLVQAGGSLRLSCAASGSTFDYYAMGWYRQAPGKERELVGVISSSGGSTYYADSVKGGFTISRDNAKNTVYLQMNSLKPEDTAVYYCAALYRNYGSSYAYYYWGQGTQVTVSS”, which “polyreactivity (PSR sort gate)” value is on record?
The value was “low polyreactivity”.

With “QVQLVESGGGLVQAGGSLRLSCAASGSTFDYYAMGWYRQTPGKERELVAAISWSGGSTYYADSVKGRFTISRDNAKNTVYLQMNSPKPEDTAVYYCATGTYFPRYKYFEGYYWGQGTQVTVSS” as the sequence, how does the “polyreactivity (PSR sort gate)” value read?
Its value is “high polyreactivity”.

Which “polyreactivity (PSR sort gate)” value does the source give for “QVQLVESGGGLVQAGGSLRLSCAASGSTFDYYDMGWYRQAPGKERELVATVTSGGSTNYADSVKGRFTISRDNAKNTVYLQMNSLKPEDTAVYYCAADIGGDGEGYDYWGQGTQVTLSS” here?
Its value is “low polyreactivity”.

Which “polyreactivity (PSR sort gate)” value does the source give for “QVQLVESGGGLVQAGGSLRLSCAASGSTFDYYPMGWYRQAPGKERELVAGIDSAGSTNYADSVKGRFTISRDNAKNTVYLQMNSLKTGRYRGLYCNVGKTITTYAFPTFDYWGQGTQVTVSS” here?
The value was “low polyreactivity”.

Which “polyreactivity (PSR sort gate)” value does the source give for “QVQLVESGGGLVQAGGSLRLSCAASGSTFDYYTMGWYRQAPGKERELVAAINSSGGRTYYADSVKGRFTISRDNAKNTDYLQMNSLKPEVTAVYYCARTRSVYGYDYWGQGTQVTVSS” here?
Its value is “high polyreactivity”.
